According to article PMC8115823:

Experiments:
[1] = target: RNA polymerase (Escherichia coli) (UniProt P0A7Z4); details: cited from earlier work
[2] = target: DNA topoisomerase I (TopoI) of Streptococcus pneumoniae (S. pneumoniae); experiment: SPR; Biacore X100; about 3000 RU of TopoI immobilised on a CM5 chip by amine coupling; RNAP holoenzyme 7.5-240 nM flowed at 50 ul/min; 25 C; 20 mM Tris HCl pH 7.5, 100 mM NaCl, 10 mM MgCl2, 0.1 mM EDTA, 1 mM DTT, 0.005% Tween-20, 5% glycerol; regeneration with 1 M NaCl; kinetic fit; two independent assays
[3] = target: DNA topoisomerase I (TopoI) of Streptococcus pneumoniae (S. pneumoniae); experiment: SPR; TopoI immobilised on a new CM5 chip; RNAP holoenzyme 240 nM incubated with 1 x MIC rifampicin (Rif)
[4] = target: DNA topoisomerase I (TopoI) of Streptococcus pneumoniae (S. pneumoniae); experiment: SPR; TopoI immobilised on a new CM5 chip; RNAP holoenzyme 240 nM injected alone (no drug)
[5] = target: DNA topoisomerase I (TopoI) of Streptococcus pneumoniae (S. pneumoniae); experiment: SPR; TopoI immobilised on a new CM5 chip; RNAP holoenzyme 240 nM incubated with 1 x MIC seconeolitsine (SCN)

Chain of DNA topoisomerase I (P06612 whole entry): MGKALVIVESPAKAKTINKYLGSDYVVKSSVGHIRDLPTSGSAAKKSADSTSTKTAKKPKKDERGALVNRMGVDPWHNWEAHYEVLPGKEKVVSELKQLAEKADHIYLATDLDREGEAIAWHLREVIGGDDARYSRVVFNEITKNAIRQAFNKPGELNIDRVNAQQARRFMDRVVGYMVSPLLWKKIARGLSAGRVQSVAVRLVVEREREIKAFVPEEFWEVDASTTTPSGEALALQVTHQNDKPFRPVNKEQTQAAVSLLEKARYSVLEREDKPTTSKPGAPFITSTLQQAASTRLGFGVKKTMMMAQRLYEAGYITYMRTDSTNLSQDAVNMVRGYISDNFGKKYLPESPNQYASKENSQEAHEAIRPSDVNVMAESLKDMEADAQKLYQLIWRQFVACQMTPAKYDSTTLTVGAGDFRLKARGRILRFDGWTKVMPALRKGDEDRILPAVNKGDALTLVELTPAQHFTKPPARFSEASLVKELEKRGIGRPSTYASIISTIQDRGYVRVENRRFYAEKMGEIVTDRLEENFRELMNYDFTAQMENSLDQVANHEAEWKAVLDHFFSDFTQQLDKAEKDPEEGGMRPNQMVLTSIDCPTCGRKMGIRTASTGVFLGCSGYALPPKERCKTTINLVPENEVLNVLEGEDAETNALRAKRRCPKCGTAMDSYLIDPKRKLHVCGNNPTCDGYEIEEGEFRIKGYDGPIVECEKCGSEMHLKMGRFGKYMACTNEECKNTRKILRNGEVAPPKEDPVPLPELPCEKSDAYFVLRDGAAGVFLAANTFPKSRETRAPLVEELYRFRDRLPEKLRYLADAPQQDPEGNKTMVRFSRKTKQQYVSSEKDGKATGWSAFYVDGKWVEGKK

| Substance | Kd [1] [nM] | Kd [2] [nM] | SPR response with Rif [3] [RU] | SPR response (no drug) [4] [RU] | SPR response with SCN [5] [RU] |
| --- | --- | --- | --- | --- | --- |
| DNA topoisomerase I (from UniProt P06612) | 93 | – | – | – | – |
| RNA polymerase (RNAP) holoenzyme of Streptococcus pneumoniae (from UniProt P66708 1-311; A0A0H2ZQA1 1-369) (complex) | – | 27 | 122 | 173 | 40.9 |
